Values of other authors, collected in article PMC6323488.

Target: EGFR (Homo sapiens) (UniProt P00533)

Kd: 0.126 µM
Substance: CTGF (from UniProt P29279)
